Laboratory results from publication PMC6351176 (Molecular microbiology, 2018).
Numbering of substitutions follows the chain as printed. Names may count otherwise.

B1: purified DnaD winged helix domain, wild type (B. subtilis, amino acids 1-128) (domain or fragment, UniProt P39787 1-128, looked up)
chain: MKKQQFIDMQEQGTSTIPNLLLTHYKQLGLNETELILLLKIKMHLEKGSYFPTPNQLQEGMSISVEECTNRLRMFIQKGFLFIEECEDQNGIKFEKYSLQPLWGKLYEYIQLAQNQTQERKAEGEQKS
B2: purified DnaD winged helix domain I83A (B. subtilis, amino acids 1-128) (domain or fragment, UniProt P39787 1-128, looked up)
chain: B1 chain with I83A
B3: purified DnaA domain I, wild type (B. subtilis, amino acids 1-82) (domain or fragment, UniProt P05648 1-82, looked up)
chain: MENILDLWNQALAQIEKKLSKPSFETWMKSTKAHSLQGDTLTITAPNEFARDWLESRYLHLIADTIYELTGEELSIKFVIPQ
B4: purified DnaD winged helix domain F51A (B. subtilis, amino acids 1-128) (domain or fragment, UniProt P39787 1-128, looked up)
chain: B1 chain with F51A

How the values were obtained:
[1] = target: the molecule itself; assay: cross-linking
[2] = target: B1; assay: cross-linking

B1: binds [1].

In the case of B2, the “stoichiometry N” value [1] is reported as 4.

B3: binds [2].

For B4, the “stoichiometry N” value [1] was 4.
